Results reported in US20160312207A1 (Stanford University, published 2016).

T1: human RSPO3 (human, UniProt Q9BXY4 22-272, limits assumed)
T1 construct: Recombinant protein; also called R-spondin 3
T1 sequence (looked up): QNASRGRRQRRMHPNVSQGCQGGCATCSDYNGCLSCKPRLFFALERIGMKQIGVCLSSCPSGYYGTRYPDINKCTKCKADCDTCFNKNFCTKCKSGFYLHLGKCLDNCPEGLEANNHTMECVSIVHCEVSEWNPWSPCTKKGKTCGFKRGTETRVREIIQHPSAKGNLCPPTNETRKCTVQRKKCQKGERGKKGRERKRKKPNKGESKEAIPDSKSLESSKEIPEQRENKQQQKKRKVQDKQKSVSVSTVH

B1: soluble RNF43-Fc ECD fusion protein (Fc fusion)
chain: GFGHTGRVLAAAVESERSAEQKAVIRVIPLKMDPTGKLNLTLEGVFAGVAEVTPAEGKLMQSHPLYLCNASDDDNLEPGFISIVKLESPRRAPRPCLSLASKARMAGERGANAVLFDITEDRSAAEQLQQPLGLTKPVVLIWGSDAAKLMEFVYKNRKAYVWIELKEPPRRLEPRGPTIKPCPPCKCPAPNLLGGPSVFIFPPKIKDVLMISLSPIVTCVVVDVSEDDPDVQISWFVNNVEVHTAQTQTHREDYNSTLRVVSALPIQHQDWMSGKEFKCKVNNKDLPAPIERTISKPKGSVRAPQVYVLPPPEEEMTKKQVTLTCMVTDFMPEDIYVEWTNNGKTELNYKNTEPVLDSDGSYFMYSKLRVEKKNWVERNSYSCSVVHEGLHNHHTTKSFSRTPGK
notes: No linker between ECD and Fc is stated; also called RNF43 ECD-Fc fusion protein; RNF43 ECD

Columns and labels:
human RSPO2 [1] = target: T2, human RSPO2 (human, UniProt Q6UXX9 22-243, limits assumed); experiment: Biacore (SPR)
T2 construct: Recombinant protein; also called R-spondin 2; recombinant human RSPO2

human RSPO4 [2] = target: T3, human RSPO4 (human, UniProt Q2I0M5 20-234, limits assumed); experiment: Biacore (SPR)
T3 construct: Recombinant protein; also called R-spondin 4

human RSPO1 [3] = target: T4, human RSPO1 (human, UniProt Q2MKA7 21-263, limits assumed); experiment: Biacore (SPR)
T4 construct: Recombinant protein; also called R-spondin 1; recombinant R-spondin

human RSPO3 [4] = target: T1, human RSPO3; experiment: Biacore (SPR)
human RSPO2 [5] = target: T2, human RSPO2; experiment: Biacore (SPR), against ZNRF3-Fc ECD fusion tested in parallel
human RSPO3 [6] = target: T1, human RSPO3; experiment: as above
human RSPO1 [7] = target: T4, human RSPO1; experiment: Biacore (SPR); human RSPO1
human RSPO2 [8] = target: T2, human RSPO2; experiment: Biacore (SPR); human RSPO2
human RSPO4 [9] = target: T3, human RSPO4; experiment: Biacore (SPR); human RSPO4
human RSPO3 [10] = target: T1, human RSPO3; experiment: Biacore (SPR); human RSPO3

T2 sequence (Q6UXX9 22-243 limits assumed): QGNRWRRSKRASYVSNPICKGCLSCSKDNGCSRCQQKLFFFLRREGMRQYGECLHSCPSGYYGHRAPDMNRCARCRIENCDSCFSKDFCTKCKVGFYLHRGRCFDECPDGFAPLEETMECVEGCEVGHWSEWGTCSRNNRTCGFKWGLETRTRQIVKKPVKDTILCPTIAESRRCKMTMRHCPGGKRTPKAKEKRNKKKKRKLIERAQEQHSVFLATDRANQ
T4 sequence (Q2MKA7 21-263 limits assumed): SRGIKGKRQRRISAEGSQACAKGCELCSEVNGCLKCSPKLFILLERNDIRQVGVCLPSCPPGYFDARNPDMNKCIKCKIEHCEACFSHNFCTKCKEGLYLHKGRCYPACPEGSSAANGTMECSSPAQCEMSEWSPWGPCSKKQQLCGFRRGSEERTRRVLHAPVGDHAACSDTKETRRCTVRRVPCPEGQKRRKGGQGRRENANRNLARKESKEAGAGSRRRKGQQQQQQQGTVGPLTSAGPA
T3 sequence (Q2I0M5 20-234 limits assumed): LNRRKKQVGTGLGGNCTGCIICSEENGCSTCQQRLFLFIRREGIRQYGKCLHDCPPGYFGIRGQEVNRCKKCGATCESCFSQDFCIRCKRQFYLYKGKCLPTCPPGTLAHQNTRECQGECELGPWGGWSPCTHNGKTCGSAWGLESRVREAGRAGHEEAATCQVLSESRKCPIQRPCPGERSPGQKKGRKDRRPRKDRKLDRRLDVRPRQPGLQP

Row | Molecule | Kd (human RSPO2 [1]) [nM] | Kd (human RSPO4 [2]) [nM] | Kd (human RSPO1 [3]) [nM] | Kd (human RSPO3 [4]) [nM] | fold stronger affinity than the ZNRF3-Fc ECD fusion (human RSPO2 [5]) [fold] | fold stronger affinity than the ZNRF3-Fc ECD fusion (human RSPO3 [6]) [fold] | Kd (human RSPO1 [7]) [nM] | Kd (human RSPO2 [8]) [nM] | Kd (human RSPO4 [9]) [nM] | Kd (human RSPO3 [10]) [nM]
1 | ZNRF3-Fc ECD fusion (Fc fusion) | 12.8 | > 1000 | 381 | 6.58 | – | – | – | – | – | –
2 | B1 | – | – | – | – | ~7000 | ~4500 | 53 | 0.00182 | 142 | 0.00145
